Test system: PI3K/Akt/mTOR signaling in lung fibroblasts
Assay: TGF-β1 stimulation of PI3K/Akt/mTOR signaling in lung fibroblasts
Format: cell-based, mouse
Conditions: TGF-β1 10 ng/ml, 24 h
Experimental: FIG. 3. CD148 deficiency enhances PI3K/Akt/mTOR signaling which results in low autophagy, high p62 expression in lung fibroblasts. (A) Mouse lung fibroblasts were isolated from Ptprj^fl/fl Col1a2^Cre-ER(T)+/0 mice (Ptprj−/−) and Col1a2^Cre-ER(T)+/0 mice (WT) and then treated with 4-OHT (1 μM) for 24 h. After 4-OHT treatment, cells were exposed to TGF-β1 (10 ng/ml) for 24 h. After stimulation, cells were harvested, and the expression of p-p85 (Tyr458), p-Akt (Ser473), pmTOR (Ser2448), p-p70 S6 kinase (Thr389), p-S6 ribosomal protein (Ser235/236) and CD148 (n=4 for each condition) in lysates was determined by Western immunoblotting and corresponding densitometry (ImageJ software). Data were normalized to corresponding dephospho-forms or GAPDH. (B) WT and Ptprj−/− cells were stimulated with TGF-β1 (10 ng/ml) for 24 h. Then cells were lysed and LC3-I and -II and p62 were measured by western blot (n=4). […] Then, autophagy flux was measured by LC3-II accumulation in the absence or presence of lysosomal acidification inhibitor chloroquine (25 μM) at 2, 4 and 6 h (n=4). […] LC3 puncta positive cells were quantified using ImageJ (D). […]
Polyacrylamide gel electrophoresis and immunoblotting were performed according to standard methods. […] The signals were detected by ECL (Thermo Fisher Scientific, Waltham, MA). […]

For TGF-β1, the “phosphorylation of PI3K (p85 subunit), Akt, mTOR and mTOR-related signaling proteins (p70 S6-kinase and S6)” value was “upregulated”.
